Results published in patent publication US12122842 (R AND D SYSTEMS, dated 2024).

Legend:
[1] = molecular target: T1, human CD30/TNFRSF8 on Jurkat human acute T cell leukemia cells (Clone E6-1) (human, UniProt P28908 19-595); assay: flow cytometry on Jurkat cells, PE anti-mouse IgG secondary
T1 construct: Endogenous CD30 on Jurkat cells; also called hCD30; hCD30/TNFRSF8
T1 sequence: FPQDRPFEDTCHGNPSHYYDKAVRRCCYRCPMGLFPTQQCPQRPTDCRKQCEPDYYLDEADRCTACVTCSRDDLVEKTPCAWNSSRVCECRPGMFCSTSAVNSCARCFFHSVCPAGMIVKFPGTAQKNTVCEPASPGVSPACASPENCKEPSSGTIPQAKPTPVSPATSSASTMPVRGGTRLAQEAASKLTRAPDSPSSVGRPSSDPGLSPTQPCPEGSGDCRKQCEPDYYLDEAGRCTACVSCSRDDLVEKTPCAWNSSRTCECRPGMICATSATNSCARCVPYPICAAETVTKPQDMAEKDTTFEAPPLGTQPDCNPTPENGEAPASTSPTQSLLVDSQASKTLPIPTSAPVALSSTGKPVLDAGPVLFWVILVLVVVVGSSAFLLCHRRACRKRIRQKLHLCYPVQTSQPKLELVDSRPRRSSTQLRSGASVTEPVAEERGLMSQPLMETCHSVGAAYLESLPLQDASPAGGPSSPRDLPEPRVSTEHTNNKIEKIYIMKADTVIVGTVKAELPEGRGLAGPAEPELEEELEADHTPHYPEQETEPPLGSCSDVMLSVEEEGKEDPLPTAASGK
Description: Jurkat human acute T cell leukemia cell line (Clone E6-1, ATCC Catalog #TIB-152) was stained with Mouse Anti-Human CD30 Monoclonal Antibody (Clone 81316.11, filled histogram) or isotype control antibody (Catalog #MAB002, open histogram), followed by Phycoerythrin-conjugated Anti-Mouse IgG Secondary Antibody (Catalog #F0102B).
Jurkat cells were harvested and washed two times in 2 mL of 1x flow staining buffer (FC001). The cells were resuspended in 1x flow staining buffer to a concentration of ~1.0×10⁶ cells/mL. About 90 µL of the cell suspension was added to each flow tube. About 10 µL of either 25 µg/mL Msxh CD30 or MsIgG1 was added to the appropriate tube, and the tubes were vortexed and then incubated for 20 minutes at room temperature. Cells were washed two times in 2 mL of 1× flow staining buffer. About 10 µL of goat anti-Mouse IgG PE secondary antibody was added to each tube, vortexed, and then incubated in the dark for 20 minutes at room temperature. Cells were washed two times in 2 mL of 1× flow staining buffer. 100 µL of 2× Sytox Blue Dead Cell Stain (ThermoFisher, S34857) was added and the cells were analyzed by flow cytometry.

[2] = molecular target: T2, recombinant human CD30 protein (UniProt P28908 19-385); assay: SPR
T2 chain: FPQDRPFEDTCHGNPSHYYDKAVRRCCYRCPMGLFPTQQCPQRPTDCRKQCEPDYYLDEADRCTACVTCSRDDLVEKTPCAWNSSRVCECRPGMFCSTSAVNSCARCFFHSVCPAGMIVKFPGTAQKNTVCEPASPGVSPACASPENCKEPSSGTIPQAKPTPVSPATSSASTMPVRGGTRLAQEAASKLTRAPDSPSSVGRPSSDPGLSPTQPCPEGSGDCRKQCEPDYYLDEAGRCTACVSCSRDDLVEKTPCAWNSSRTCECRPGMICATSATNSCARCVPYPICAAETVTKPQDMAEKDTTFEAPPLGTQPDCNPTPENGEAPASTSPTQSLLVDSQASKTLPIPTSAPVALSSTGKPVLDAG

B1: Mouse Anti-Human CD30 Monoclonal Antibody (Clone 81316.11) (antibody, V domains shown)
VH: QVQLKESGPGLVAPSQSLSITCTVSGFSLTSYGVHWVRQPPGKGLEWLGVIWAGETINYNLALMSRLSISKDNSKSQVFLKMNSLQTEDTAMYYCARDQGEYGNYGWYFDVWGAGTTVTVSS
VL: DIQMTQTTSSLSASLGDRVTISCSASQGISNYLNWYQQKPDGTVKLLIYYTSSLHSGVPSRFSGSGSGTDYSLTISNLEPEDIATYYCQHYSKLPPTFGGGTKLEIKR
notes: It is a mouse monoclonal, and the isotype control used beside it is MsIgG1; also called anti-hCD30 antibody; recombinant hCD30 antibody
[1]
  binding result: binds
[2]
  Kd: 5.1 nM
